Tested on: Escherichia coli TOP10
Assay: shrunken log2 fold change of peptide-encoding DNA abundance (4.5 h post-induction vs induction); higher = less antimicrobial activity (less host growth inhibition)
Conditions: time post-induction: 4.5 h; library: site-saturation at positions 5, 18, 19, 20
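Also: peptides expressed intracellularly from a pBAD plasmid library in pooled LB shake-flask culture, induced with 0.3% L-arabinose, DNA abundance read by NGS, three biological replicates, DESeq2 with apeglm shrinkage.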

Sequence | shrunken log2 fold change
RRIRHRPPRLPRPRPRPKVWPRP | 0.331
RRIRHRPPRLPRPRPRPKYRPRP | -0.138
RRIRHRPPRLPRPRPRPLACPRP | 0.0188
RRIRHRPPRLPRPRPRPLAWPRP | 0.198
RRIRHRPPRLPRPRPRPLCAPRP | -0.0531
RRIRHRPPRLPRPRPRPLCEPRP | 0.197
RRIRHRPPRLPRPRPRPLCHPRP | -0.44
RRIRHRPPRLPRPRPRPLDFPRP | -0.342
RRIRHRPPRLPRPRPRPLDMPRP | -0.0339
RRIRHRPPRLPRPRPRPLFMPRP | -0.492
RRIRHRPPRLPRPRPRPLHFPRP | -0.0265
RRIRHRPPRLPRPRPRPLHHPRP | -0.554
RRIRHRPPRLPRPRPRPLISPRP | -0.387
RRIRHRPPRLPRPRPRPLMMPRP | -0.124
RRIRHRPPRLPRPRPRPLNCPRP | -0.134
RRIRHRPPRLPRPRPRPLNIPRP | -0.386
RRIRHRPPRLPRPRPRPLPRPRP | 0.176
RRIRHRPPRLPRPRPRPLQFPRP | -0.28
RRIRHRPPRLPRPRPRPLQHPRP | 0.0675
RRIRHRPPRLPRPRPRPLQLPRP | -0.213
RRIRHRPPRLPRPRPRPLRRPRP | 0.3
RRIRHRPPRLPRPRPRPLSDPRP | -0.0615

Sequence | shrunken log2 fold change
RRIRHRPPRLPRPRPRPLSMPRP | -0.396
RRIRHRPPRLPRPRPRPLTKPRP | 0.133
RRIRHRPPRLPRPRPRPLVGPRP | 0.00867
RRIRHRPPRLPRPRPRPLVQPRP | -0.0987
RRIRHRPPRLPRPRPRPLWDPRP | -0.15
RRIRHRPPRLPRPRPRPLWFPRP | -0.00823
RRIRHRPPRLPRPRPRPLWNPRP | -1.07
RRIRHRPPRLPRPRPRPLWQPRP | -0.145
RRIRHRPPRLPRPRPRPLYTPRP | -0.57
RRIRHRPPRLPRPRPRPMAWPRP | 0.0581
RRIRHRPPRLPRPRPRPMCKPRP | -0.151
RRIRHRPPRLPRPRPRPMCPPRP | -0.0218
RRIRHRPPRLPRPRPRPMCYPRP | 0.118
RRIRHRPPRLPRPRPRPMFMPRP | -0.256
RRIRHRPPRLPRPRPRPMGCPRP | -0.000946
RRIRHRPPRLPRPRPRPMHRPRP | 0.00128
RRIRHRPPRLPRPRPRPMHYPRP | -0.289
RRIRHRPPRLPRPRPRPMIYPRP | -0.105
RRIRHRPPRLPRPRPRPMLAPRP | -0.144
RRIRHRPPRLPRPRPRPMNSPRP | -0.214
RRIRHRPPRLPRPRPRPMPHPRP | -0.131
RRIRHRPPRLPRPRPRPMPNPRP | -0.0341

Sequence | shrunken log2 fold change
RRIRHRPPRLPRPRPRPMPQPRP | 0.235
RRIRHRPPRLPRPRPRPMPVPRP | -0.0266
RRIRHRPPRLPRPRPRPMPWPRP | -0.032
RRIRHRPPRLPRPRPRPMRAPRP | 0.686
RRIRHRPPRLPRPRPRPMRIPRP | -0.00172
RRIRHRPPRLPRPRPRPMRPPRP | 0.36
RRIRHRPPRLPRPRPRPMSAPRP | -0.549
RRIRHRPPRLPRPRPRPMSWPRP | -0.106
RRIRHRPPRLPRPRPRPMTAPRP | -0.135
RRIRHRPPRLPRPRPRPMTPPRP | 0.0337
RRIRHRPPRLPRPRPRPMVHPRP | 0.00748
RRIRHRPPRLPRPRPRPMWLPRP | -0.362
RRIRHRPPRLPRPRPRPNAIPRP | 0.0158
RRIRHRPPRLPRPRPRPNCPPRP | -0.152
RRIRHRPPRLPRPRPRPNCTPRP | -0.142
RRIRHRPPRLPRPRPRPNDEPRP | -0.0904
RRIRHRPPRLPRPRPRPNDYPRP | -0.56
RRIRHRPPRLPRPRPRPNEDPRP | -0.081
RRIRHRPPRLPRPRPRPNELPRP | 0.031
RRIRHRPPRLPRPRPRPNFFPRP | 0.307
RRIRHRPPRLPRPRPRPNFLPRP | -0.322
RRIRHRPPRLPRPRPRPNFRPRP | -0.144

Sequence | shrunken log2 fold change
RRIRHRPPRLPRPRPRPNHVPRP | -0.0341
RRIRHRPPRLPRPRPRPNHWPRP | -0.594
RRIRHRPPRLPRPRPRPNKWPRP | -0.0964
RRIRHRPPRLPRPRPRPNLVPRP | -0.00912
RRIRHRPPRLPRPRPRPNPAPRP | -0.0505
RRIRHRPPRLPRPRPRPNPPPRP | 0.0899
RRIRHRPPRLPRPRPRPNQDPRP | -0.337
RRIRHRPPRLPRPRPRPNQGPRP | -0.479
RRIRHRPPRLPRPRPRPNQMPRP | -0.0904
RRIRHRPPRLPRPRPRPNSGPRP | -0.194
RRIRHRPPRLPRPRPRPNTDPRP | -0.438
RRIRHRPPRLPRPRPRPNTWPRP | -0.0528
RRIRHRPPRLPRPRPRPNWNPRP | -0.451
RRIRHRPPRLPRPRPRPNWQPRP | -0.0282
RRIRHRPPRLPRPRPRPPAFPRP | 0.0237
RRIRHRPPRLPRPRPRPPAMPRP | 0.0064
RRIRHRPPRLPRPRPRPPDYPRP | 4.26
RRIRHRPPRLPRPRPRPPFDPRP | -0.178
RRIRHRPPRLPRPRPRPPFLPRP | -0.251
RRIRHRPPRLPRPRPRPPFNPRP | -0.256
RRIRHRPPRLPRPRPRPPGNPRP | 0.133
RRIRHRPPRLPRPRPRPPHYPRP | 0.0175

Sequence | shrunken log2 fold change
RRIRHRPPRLPRPRPRPPIFPRP | -0.163
RRIRHRPPRLPRPRPRPPITPRP | -0.346
RRIRHRPPRLPRPRPRPPLDPRP | 0.372
RRIRHRPPRLPRPRPRPPLGPRP | 0.25
RRIRHRPPRLPRPRPRPPLKPRP | -0.00744
RRIRHRPPRLPRPRPRPPLLPRP | 0.152
RRIRHRPPRLPRPRPRPPLMPRP | -0.187
RRIRHRPPRLPRPRPRPPLPPRP | 0.476
RRIRHRPPRLPRPRPRPPMGPRP | 0.343
RRIRHRPPRLPRPRPRPPMNPRP | -0.543
RRIRHRPPRLPRPRPRPPNYPRP | -0.0558
RRIRHRPPRLPRPRPRPPQEPRP | -0.0115
RRIRHRPPRLPRPRPRPPRVPRP | 0.356
RRIRHRPPRLPRPRPRPPSWPRP | 0.393
RRIRHRPPRLPRPRPRPPVWPRP | 0.156
RRIRHRPPRLPRPRPRPPWAPRP | 0.226
RRIRHRPPRLPRPRPRPPWFPRP | -0.27
RRIRHRPPRLPRPRPRPPWTPRP | -0.131
RRIRHRPPRLPRPRPRPPYIPRP | -0.175
RRIRHRPPRLPRPRPRPQDWPRP | 0.0899
RRIRHRPPRLPRPRPRPQIVPRP | -0.238

From the supplement of paper PMC9112550, “Optimization of the antimicrobial peptide Bac7 by deep mutational scanning” (BMC Biology, 2022)
